pKi: −log10 of the molar value.
Assays:
[1] = molecular target: human carboxypeptidase N (human) (UniProt P15169)
thrombin = test: cell-based or functional assay

Sequence of human carboxypeptidase N (human) (P15169 21-458 limits assumed, chain 1 of 2): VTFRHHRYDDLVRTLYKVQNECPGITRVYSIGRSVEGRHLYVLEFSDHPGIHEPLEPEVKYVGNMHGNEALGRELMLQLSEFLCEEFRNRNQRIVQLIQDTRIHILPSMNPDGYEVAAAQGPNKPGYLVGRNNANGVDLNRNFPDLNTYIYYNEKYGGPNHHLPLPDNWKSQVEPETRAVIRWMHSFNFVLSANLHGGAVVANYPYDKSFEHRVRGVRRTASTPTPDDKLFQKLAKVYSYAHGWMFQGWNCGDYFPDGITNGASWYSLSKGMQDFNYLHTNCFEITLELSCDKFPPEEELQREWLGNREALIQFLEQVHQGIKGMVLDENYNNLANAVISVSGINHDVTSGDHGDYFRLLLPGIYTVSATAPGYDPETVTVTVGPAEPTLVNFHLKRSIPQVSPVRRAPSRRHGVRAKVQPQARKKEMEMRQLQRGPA
Sequence of human carboxypeptidase N (human) (P22792 22-545 limits assumed, chain 2 of 2, further chain): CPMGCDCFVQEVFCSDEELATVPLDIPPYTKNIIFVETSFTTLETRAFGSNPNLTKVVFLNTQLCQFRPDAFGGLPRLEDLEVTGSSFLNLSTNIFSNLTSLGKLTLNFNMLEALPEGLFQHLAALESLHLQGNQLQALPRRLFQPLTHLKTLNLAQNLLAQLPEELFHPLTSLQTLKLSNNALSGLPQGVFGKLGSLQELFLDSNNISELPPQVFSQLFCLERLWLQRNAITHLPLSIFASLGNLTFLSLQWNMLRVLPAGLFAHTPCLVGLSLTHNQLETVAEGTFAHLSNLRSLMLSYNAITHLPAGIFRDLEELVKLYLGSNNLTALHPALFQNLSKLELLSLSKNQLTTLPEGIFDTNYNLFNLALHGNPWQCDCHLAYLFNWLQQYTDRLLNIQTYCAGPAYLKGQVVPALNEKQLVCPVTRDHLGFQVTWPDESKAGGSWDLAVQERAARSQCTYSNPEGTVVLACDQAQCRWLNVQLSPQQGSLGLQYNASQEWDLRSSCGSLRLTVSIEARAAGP

Row | pKi [1] | increase of TAFIa generation in diluted human plasma (thrombin) | Substance
1 | 6.01 |  | protamine sulfate (grade X from salmon, Mr 5,000) (peptide)
2 |  | 30 to 35 fold | rabbit lung thrombomodulin

Reference: patent US7176008
